The values below come from the supplement of paper PMC10567573.

To fix the notation:
B1: FADS1 (parent)
chain: LNFQIEHHLFPTMPRHNYHKVAPL
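Also: lentivirally expressed fusions sorted by FACS into six bins by GFP to DsRed ratio, PSI derived from sequencing read proportions per bin multiplied by bin number.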

Variants of B1 are the subject of this data set. The data set can be described thus: protein stability index of a GFP-peptide fusion (GPS, HEK-293T) (PSI 1-6); higher = more stable. Particulars: c terminus: a fixed tail appended.
For the variant LNFQIEHHLFGTMPRHNYHKVAPL, the protein stability index worked out at 1.9.

LNFQIEHHLFETMPRHNYHKVAPL: the protein stability index amounted to 2.56.

Consider LNFQIEHHLFITMPRHNYHKVAPL, for which the protein stability index came out at 2.19.

On to LNFQIEHHLFDTMPRHNYHKVAPL, for which the protein stability index is 3.83.

Consider LNFQIEHHLFQTMPRHNYHKVAPL, for which the protein stability index was found to be 2.73.

As to LNFQIEHHLFRTMPRHNYHKVAPL, the protein stability index was found to be 1.81.

As for LNFQIEHHLFFTMPRHNYHKVAPL, the protein stability index was 2.77.

LNFQIEHHLFSTMPRHNYHKVAPL: the protein stability index was 2.

In the case of LNFQIEHHLFKTMPRHNYHKVAPL, the protein stability index is 2.46.

For the variant LNFQIEHHLFVTMPRHNYHKVAPL, the protein stability index was determined as 2.17.

As to LNFQIEHHLFWTMPRHNYHKVAPL, the protein stability index was determined as 3.17.

Take LNFQIEHHLFHTMPRHNYHKVAPL: the protein stability index is 3.14.

With LNFQIEHHLFATMPRHNYHKVAPL, the protein stability index came out at 2.35.

As for LNFQIEHHLFNTMPRHNYHKVAPL, the protein stability index is 2.27.

With LNFQIEHHLFTTMPRHNYHKVAPL, the protein stability index amounted to 2.24.

Take LNFQIEHHLFCTMPRHNYHKVAPL: the protein stability index worked out at 2.3.

On to LNFQIEHHLFLTMPRHNYHKVAPL, for which the protein stability index came to 2.53.

Consider LNFQIEHHLFYTMPRHNYHKVAPL, for which the protein stability index came to 2.96.

On to LNFQIEHHLWPTMPRHNYHKVAPL, for which the protein stability index was found to be 2.

LNFQIEHHLIPTMPRHNYHKVAPL: the protein stability index worked out at 2.97.

For LNFQIEHHLDPTMPRHNYHKVAPL, the protein stability index turned out to be 1.74.

On to LNFQIEHHLSPTMPRHNYHKVAPL, for which the protein stability index came out at 1.66.

On to LNFQIEHHLMPTMPRHNYHKVAPL, for which the protein stability index amounted to 1.37.

For the variant LNFQIEHHLTPTMPRHNYHKVAPL, the protein stability index is 1.39.

Regarding LNFQIEHHLVPTMPRHNYHKVAPL, the protein stability index was found to be 1.05.

In the case of LNFQIEHHLRPTMPRHNYHKVAPL, the protein stability index amounted to 1.87.

Turning to LNFQIEHHLLPTMPRHNYHKVAPL, the protein stability index was 1.55.

As for LNFQIEHHLNPTMPRHNYHKVAPL, the protein stability index is 2.28.

Regarding LNFQIEHHLHPTMPRHNYHKVAPL, the protein stability index came to 3.04.

For LNFQIEHHLKPTMPRHNYHKVAPL, the protein stability index stood at 2.14.

As for LNFQIEHHLEPTMPRHNYHKVAPL, the protein stability index is 1.24.

For the variant LNFQIEHHLAPTMPRHNYHKVAPL, the protein stability index came out at 2.17.

Consider LNFQIEHHLYPTMPRHNYHKVAPL, for which the protein stability index was found to be 2.17.

Take LNFQIEHHLCPTMPRHNYHKVAPL: the protein stability index was determined as 2.71.

For LNFQIEHHLPPTMPRHNYHKVAPL, the protein stability index worked out at 1.24.

On to LNFQIEHHLQPTMPRHNYHKVAPL, for which the protein stability index is 1.92.

Regarding LNFQIEHHLGPTMPRHNYHKVAPL, the protein stability index was determined as 2.73.

With LNFQIEHHFFPTMPRHNYHKVAPL, the protein stability index came out at 3.13.

On to LNFQIEHHTFPTMPRHNYHKVAPL, for which the protein stability index amounted to 1.42.

Take LNFQIEHHAFPTMPRHNYHKVAPL: the protein stability index stood at 1.39.

For the variant LNFQIEHHWFPTMPRHNYHKVAPL, the protein stability index came to 3.23.

Take LNFQIEHHCFPTMPRHNYHKVAPL: the protein stability index came to 1.72.

With LNFQIEHHDFPTMPRHNYHKVAPL, the protein stability index amounted to 2.04.

Turning to LNFQIEHHQFPTMPRHNYHKVAPL, the protein stability index was found to be 1.34.

As for LNFQIEHHRFPTMPRHNYHKVAPL, the protein stability index was determined as 1.87.

With LNFQIEHHNFPTMPRHNYHKVAPL, the protein stability index stood at 1.57.

For the variant LNFQIEHHPFPTMPRHNYHKVAPL, the protein stability index stood at 1.5.

Turning to LNFQIEHHEFPTMPRHNYHKVAPL, the protein stability index stood at 1.23.

As for LNFQIEHHHFPTMPRHNYHKVAPL, the protein stability index came out at 1.8.

For the variant LNFQIEHHSFPTMPRHNYHKVAPL, the protein stability index worked out at 2.71.

For LNFQIEHHMFPTMPRHNYHKVAPL, the protein stability index came to 1.95.

Consider LNFQIEHHGFPTMPRHNYHKVAPL, for which the protein stability index came out at 2.83.

Consider LNFQIEHHYFPTMPRHNYHKVAPL, for which the protein stability index was found to be 2.1.

Turning to LNFQIEHHKFPTMPRHNYHKVAPL, the protein stability index is 1.36.

Consider LNFQIEHHVFPTMPRHNYHKVAPL, for which the protein stability index came to 2.37.

Regarding LNFQIEHHIFPTMPRHNYHKVAPL, the protein stability index came to 2.01.

Regarding LNFQIEHHLFPDMPRHNYHKVAPL, the protein stability index came to 1.98.

On to LNFQIEHHLFPQMPRHNYHKVAPL, for which the protein stability index turned out to be 1.99.

On to LNFQIEHHLFPHMPRHNYHKVAPL, for which the protein stability index came to 1.46.

Take LNFQIEHHLFPSMPRHNYHKVAPL: the protein stability index worked out at 2.65.

With LNFQIEHHLFPYMPRHNYHKVAPL, the protein stability index is 2.5.

LNFQIEHHLFPLMPRHNYHKVAPL: the protein stability index worked out at 2.08.

As for LNFQIEHHLFPMMPRHNYHKVAPL, the protein stability index came to 1.73.

For LNFQIEHHLFPFMPRHNYHKVAPL, the protein stability index was found to be 2.79.

LNFQIEHHLFPNMPRHNYHKVAPL: the protein stability index was 1.77.

For LNFQIEHHLFPVMPRHNYHKVAPL, the protein stability index worked out at 2.29.

In the case of LNFQIEHHLFPWMPRHNYHKVAPL, the protein stability index was 2.45.

Take LNFQIEHHLFPAMPRHNYHKVAPL: the protein stability index is 2.56.

LNFQIEHHLFPCMPRHNYHKVAPL: the protein stability index worked out at 2.74.

Consider LNFQIEHHLFPGMPRHNYHKVAPL, for which the protein stability index was found to be 1.47.

As to LNFQIEHHLFPPMPRHNYHKVAPL, the protein stability index turned out to be 3.45.

For the variant LNFQIEHHLFPKMPRHNYHKVAPL, the protein stability index turned out to be 1.92.

For LNFQIEHHLFPEMPRHNYHKVAPL, the protein stability index came out at 2.42.

For LNFQIEHHLFPIMPRHNYHKVAPL, the protein stability index worked out at 2.5.

For LNFQSEHHLFPTMPRHNYHKVAPL, the protein stability index was found to be 2.18.

Turning to LNFQLEHHLFPTMPRHNYHKVAPL, the protein stability index was 2.35.

Take LNFQCEHHLFPTMPRHNYHKVAPL: the protein stability index was 2.33.

LNFQGEHHLFPTMPRHNYHKVAPL: the protein stability index amounted to 2.01.

Consider LNFQKEHHLFPTMPRHNYHKVAPL, for which the protein stability index amounted to 2.06.

With LNFQQEHHLFPTMPRHNYHKVAPL, the protein stability index came out at 1.83.

Take LNFQVEHHLFPTMPRHNYHKVAPL: the protein stability index is 2.73.

For LNFQFEHHLFPTMPRHNYHKVAPL, the protein stability index is 2.87.

For LNFQTEHHLFPTMPRHNYHKVAPL, the protein stability index is 1.65.

Take LNFQDEHHLFPTMPRHNYHKVAPL: the protein stability index amounted to 2.4.

On to LNFQPEHHLFPTMPRHNYHKVAPL, for which the protein stability index came to 2.14.

With LNFQNEHHLFPTMPRHNYHKVAPL, the protein stability index worked out at 2.52.

LNFQYEHHLFPTMPRHNYHKVAPL: the protein stability index worked out at 2.57.

As to LNFQHEHHLFPTMPRHNYHKVAPL, the protein stability index turned out to be 1.83.

In the case of LNFQREHHLFPTMPRHNYHKVAPL, the protein stability index worked out at 2.27.

Turning to LNFQMEHHLFPTMPRHNYHKVAPL, the protein stability index came to 1.63.

Take LNFQAEHHLFPTMPRHNYHKVAPL: the protein stability index stood at 1.83.

As for LNFQEEHHLFPTMPRHNYHKVAPL, the protein stability index stood at 2.1.

As for LNFQWEHHLFPTMPRHNYHKVAPL, the protein stability index stood at 1.43.

Take LNFHIEHHLFPTMPRHNYHKVAPL: the protein stability index worked out at 2.67.
